B1: MMP1 (parent)
chain: MFFKDRFYMRTNPFYPEVELNFIS

Variants of: B1
Assay: protein stability index of a GFP-peptide fusion (GPS, HEK-293T) (PSI 1-6); higher = more stable
Details: c terminus: a fixed tail appended
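Further: lentivirally expressed fusions sorted by FACS into six bins by GFP to DsRed ratio, PSI derived from sequencing read proportions per bin multiplied by bin number.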

Protein stability index of substitutions, site by site:
F14: Y 2.96, I 2.54, N 2.87, D 3.86, M 1.73, C 2.65, L 2.62, E 3.46, A 3.69, H 2.82, G 2.92, R 3.1, Q 2.58, V 3.62, T 2.33, K 3.31
E17: R 2.57, P 1.8, G 2.52, F 2.19, D 1.97, T 1.84, A 2.9, Y 2.42, M 2.78, V 2.99, C 4.42, W 3.19, L 2.55, K 2.21, N 3.69, S 2.15, I 3.71, H 3.02
P16: W 2.44, N 3.95, G 3.15, C 2.71, T 3.07, V 3.21, F 2.88, D 2.18, S 2.96, M 1.74, K 2.25, I 3.59, R 1.98, Q 3.75, Y 2.82, H 2.95, E 3.49, L 1.75
N12: P 3.4, F 3.09, H 2.87, D 3.11, S 2.74, W 3, Y 3.12, Q 2.67, M 2.94, I 2, G 2.91, E 4.11, T 2.56, C 3.02, R 3.81, K 3.17, L 2.51, V 2.43
Y15: R 2.66, V 2.37, Q 1.34, D 3.35, N 2.94, W 2.93, P 2.4, F 2.63, I 3.09, M 1.97, E 2.15, S 2.69, G 2.09, L 3.33, A 1.72, K 2.72, C 3.47, H 2.19, T 2.43
R10: Y 2.63, W 2.82, V 3
V18: C 2.99, D 2.66, I 2.84, Q 2.35, A 3.25, M 2.52, W 3.22, E 3.27, R 1.87, G 2.08, K 3.54, L 2.41, F 2.61, H 3.06, Y 2.64, P 3.06, T 3.87, S 3.28, N 1.78
T11: H 1.78, L 2.72, R 2.28, E 3.11, A 3.18, Q 2.59, W 3.68, C 3.79, P 3.77, N 2.96, D 3.5, S 2.32, K 3.17, M 3.47, G 2.64, I 1.63, V 4.1
L20: F 3.19, C 3.04, A 2.27, E 3.27, D 2.28
E19: K 4.43, T 2.44, Q 2.3, M 1.47, G 3.69, F 3.27, V 2.27, W 1.3, Y 3.1, A 3.48, I 3.25, D 2.34, S 2.61, H 3.47, L 2.64, C 3.18, P 3.53, N 3.6
P13: V 3.62, K 2.58, H 2.46, W 3.9, S 1.94, R 3.31, Q 1.76, I 2.85, D 3.62, Y 2.35, G 2.62, N 2.29, A 2.38, M 2.66, C 2.68, L 2.37

From the supplement of paper PMC10567573
